Data on 4 molecules can be found in patent publication US10766960 (dated 2020).

By Kd is commonly meant the concentration at which binding is half-saturated. Low readings indicate tighter binding, high ones weaker binding.

Experiment in all cases: SPR
A general note: SPR reads the build-up and loss of mass on a sensor chip optically.

Assay [1] addresses T1, FcgRIIa R (human, UniProt P12318).
T1 chain: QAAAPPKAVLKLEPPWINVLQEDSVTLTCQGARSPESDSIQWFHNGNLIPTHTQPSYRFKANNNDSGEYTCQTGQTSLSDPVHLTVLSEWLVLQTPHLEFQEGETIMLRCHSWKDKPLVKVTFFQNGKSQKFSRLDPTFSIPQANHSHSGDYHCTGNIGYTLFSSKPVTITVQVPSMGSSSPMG

Assay [2] has as its target T2, FcgRIa (human, UniProt P12314).
T2 chain: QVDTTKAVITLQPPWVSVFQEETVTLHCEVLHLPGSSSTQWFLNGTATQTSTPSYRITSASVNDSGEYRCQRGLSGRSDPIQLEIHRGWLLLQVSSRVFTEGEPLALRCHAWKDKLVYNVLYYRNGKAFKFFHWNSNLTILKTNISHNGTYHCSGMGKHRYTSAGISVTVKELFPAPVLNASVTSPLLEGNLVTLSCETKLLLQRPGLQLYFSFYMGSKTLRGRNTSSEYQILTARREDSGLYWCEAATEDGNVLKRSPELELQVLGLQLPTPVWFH

In assay [3] the target is FcgRIIIa V (human, UniProt P08637).
Sequence of FcgRIIIa V (P08637 17-208 F176V): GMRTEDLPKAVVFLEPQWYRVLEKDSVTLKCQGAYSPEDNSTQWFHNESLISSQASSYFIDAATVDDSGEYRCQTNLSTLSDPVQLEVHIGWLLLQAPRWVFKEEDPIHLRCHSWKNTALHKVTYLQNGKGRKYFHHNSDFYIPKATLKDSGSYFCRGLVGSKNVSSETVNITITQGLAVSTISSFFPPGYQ
The target of assay [4] is T3, FcgRIIa H (human, UniProt P12318).
T3 chain: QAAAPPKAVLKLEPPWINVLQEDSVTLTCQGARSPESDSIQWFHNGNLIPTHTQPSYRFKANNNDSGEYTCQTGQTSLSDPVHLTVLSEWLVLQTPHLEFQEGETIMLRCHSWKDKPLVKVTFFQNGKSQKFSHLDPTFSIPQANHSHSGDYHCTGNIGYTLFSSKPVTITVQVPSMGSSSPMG

In assay [5] the target is T4, FcgRIIb (human, UniProt P31994).
T4 chain: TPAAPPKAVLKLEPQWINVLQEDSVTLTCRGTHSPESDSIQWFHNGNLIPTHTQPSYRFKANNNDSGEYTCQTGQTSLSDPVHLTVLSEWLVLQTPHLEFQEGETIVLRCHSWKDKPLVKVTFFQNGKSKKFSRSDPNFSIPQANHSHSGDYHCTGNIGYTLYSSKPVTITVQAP

Assay [6] addresses FcgRIIIa F (human, UniProt P08637).

Sequence of FcgRIIIa F (P08637 17-208): as the sequence (P08637 17-208 F176V) above, with V160F counted along it

B1: H240-Kn201/H240-Hl214/L73-k0 (antibody)
chain 1: QDQLVQSGAEVKKPGASVKVSCKASGFNIKDTYIQWVRQAPGQGLEWMGRIDPLRKQTKYREKFEGRVTITADTSTNTAYMELSSLRSEDTAVYYCVRSGREFDYWGQGTLVTVSSASTKGPSVFPLAPSSKSTSGGTAALGCLVKDYFPEPVTVSWNSGALTSGVHTFPAVLQSSGLYSLSSVVTVPSSSLGTQTYICNVNHKPSNTKVDKKVEPKSCDKTHTCPPCPAPEFQWGPMVFLFPPKPKDTLMISRTPEVTCVVVDVSDEEPEVKFNWYVDGVEVHNAKTKPREEQYNATYRVVSVLTVLHQDWLNGKEYKCKVSNKALPAPIEKTISKAKGQPREPQVCTLPPSRDELTKNQVSLWCLVKGFYPSDIAVEWESNGQPENNYKTTPPVLDSDGSFFLYSKLTVDKSRWQQGNVFSCSVMHEALHNHYTQKSLSLSP
chain 2: QDQLVQSGAEVKKPGASVKVSCKASGFNIKDTYIQWVRQAPGQGLEWMGRIDPLRKQTKYREKFEGRVTITADTSTNTAYMELSSLRSEDTAVYYCVRSGREFDYWGQGTLVTVSSASTKGPSVFPLAPSSKSTSGGTAALGCLVKDYFPEPVTVSWNSGALTSGVHTFPAVLQSSGLYSLSSVVTVPSSSLGTQTYICNVNHKPSNTKVDKKVEPKSCDKTHTCPPCPAPELLGGPSVFLFPPKPKDTLMISRTPEVTCVVVDVSHEEPEVKFNWYVDGVEVHNAKTKPREEQYNSTYRVVSVLTVLHQDWLNGKEYKCKVSNDALPFPIEETISKAKGQPREPQVYTLPPSRCELTKNQVSLSCAVKGFYPSDIAVEWESNGQPENNYKTTPPVLDSDGSFFLVSKLTVDKSRWQQGNVFSCSVMHEALHNHYTQKSLSLSP
chain 3: DIQMTQSPSSLSASVGDRVTITCRASQDIHKYIAWYQQKPGQAPRLLIQYTSTLQPGVPSRFSGSGSGTDYTFTISSLQPEDIATYYCLQYEQLRTFGGGTKVEIKRTVAAPSVFIFPPSDEQLKSGTASVVCLLNNFYPREAKVQWKVDNALQSGNSQESVTEQDSKDSTYSLSSTLTLSKADYEKHKVYACEVTHQGLSSPVTKSFNRGEC
Consider B1, for which the Kd came to 560 nM in assay [1]; 0.091 nM in assay [2]; 1.4 nM in assay [3]; 150 nM in assay [4]; 3700 nM in assay [5]; 3.9 nM in assay [6].

B2: H240-Kn226/H240-Hl210/L73-k0 (antibody)
chain 1: QDQLVQSGAEVKKPGASVKVSCKASGFNIKDTYIQWVRQAPGQGLEWMGRIDPLRKQTKYREKFEGRVTITADTSTNTAYMELSSLRSEDTAVYYCVRSGREFDYWGQGTLVTVSSASTKGPSVFPLAPSSKSTSGGTAALGCLVKDYFPEPVTVSWNSGALTSGVHTFPAVLQSSGLYSLSSVVTVPSSSLGTQTYICNVNHKPSNTKVDKKVEPKSCDKTHTCPPCPAPEFQWGPIVFLFPPKPKDTLMISRTPEVTCVVVDVSDEEPEVKFNWYVDGVEVHNAKTKPREEQYNATYRVVSVLTVLHQDWLNGKEYKCKVSNKALPAPIEKTISKAKGQPREPQVCTLPPSRDELTKNQVSLWCLVKGFYPSDIAVEWESNGQPENNYKTTPPVLDSDGSFFLYSKLTVDKSRWQQGNVFSCSVMHEALHNHYTQKSLSLSP
chain 2: QDQLVQSGAEVKKPGASVKVSCKASGFNIKDTYIQWVRQAPGQGLEWMGRIDPLRKQTKYREKFEGRVTITADTSTNTAYMELSSLRSEDTAVYYCVRSGREFDYWGQGTLVTVSSASTKGPSVFPLAPSSKSTSGGTAALGCLVKDYFPEPVTVSWNSGALTSGVHTFPAVLQSSGLYSLSSVVTVPSSSLGTQTYICNVNHKPSNTKVDKKVEPKSCDKTHTCPPCPAPELLGGPSVFLFPPKPKDTLMISRTPEVTCVVVDVSHEEPEVKFNWYVDGVEVHNAKTKPREEQYNSTYRVVSVLTVLHQDWLNGKEYKCKVSNDALPAPIEETISKAKGQPREPQVYTLPPSRCELTKNQVSLSCAVKGFYPSDIAVEWESNGQPENNYKTTPPVLDSDGSFFLVSKLTVDKSRWQQGNVFSCSVMHEALHNHYTQKSLSLSP
chain 3: DIQMTQSPSSLSASVGDRVTITCRASQDIHKYIAWYQQKPGQAPRLLIQYTSTLQPGVPSRFSGSGSGTDYTFTISSLQPEDIATYYCLQYEQLRTFGGGTKVEIKRTVAAPSVFIFPPSDEQLKSGTASVVCLLNNFYPREAKVQWKVDNALQSGNSQESVTEQDSKDSTYSLSSTLTLSKADYEKHKVYACEVTHQGLSSPVTKSFNRGEC
For the molecule B2, the Kd in assay [1] came out at 310 nM; in assay [2], 0.11 nM; in assay [3], 0.85 nM; in assay [4], 120 nM; in assay [5], 3100 nM; in assay [6], 3.7 nM.

B3: H240-Kn201/H240-Hl210/L73-k0 (antibody)
chain 1: QDQLVQSGAEVKKPGASVKVSCKASGFNIKDTYIQWVRQAPGQGLEWMGRIDPLRKQTKYREKFEGRVTITADTSTNTAYMELSSLRSEDTAVYYCVRSGREFDYWGQGTLVTVSSASTKGPSVFPLAPSSKSTSGGTAALGCLVKDYFPEPVTVSWNSGALTSGVHTFPAVLQSSGLYSLSSVVTVPSSSLGTQTYICNVNHKPSNTKVDKKVEPKSCDKTHTCPPCPAPEFQWGPMVFLFPPKPKDTLMISRTPEVTCVVVDVSDEEPEVKFNWYVDGVEVHNAKTKPREEQYNATYRVVSVLTVLHQDWLNGKEYKCKVSNKALPAPIEKTISKAKGQPREPQVCTLPPSRDELTKNQVSLWCLVKGFYPSDIAVEWESNGQPENNYKTTPPVLDSDGSFFLYSKLTVDKSRWQQGNVFSCSVMHEALHNHYTQKSLSLSP
chain 2: QDQLVQSGAEVKKPGASVKVSCKASGFNIKDTYIQWVRQAPGQGLEWMGRIDPLRKQTKYREKFEGRVTITADTSTNTAYMELSSLRSEDTAVYYCVRSGREFDYWGQGTLVTVSSASTKGPSVFPLAPSSKSTSGGTAALGCLVKDYFPEPVTVSWNSGALTSGVHTFPAVLQSSGLYSLSSVVTVPSSSLGTQTYICNVNHKPSNTKVDKKVEPKSCDKTHTCPPCPAPELLGGPSVFLFPPKPKDTLMISRTPEVTCVVVDVSHEEPEVKFNWYVDGVEVHNAKTKPREEQYNSTYRVVSVLTVLHQDWLNGKEYKCKVSNDALPAPIEETISKAKGQPREPQVYTLPPSRCELTKNQVSLSCAVKGFYPSDIAVEWESNGQPENNYKTTPPVLDSDGSFFLVSKLTVDKSRWQQGNVFSCSVMHEALHNHYTQKSLSLSP
chain 3: DIQMTQSPSSLSASVGDRVTITCRASQDIHKYIAWYQQKPGQAPRLLIQYTSTLQPGVPSRFSGSGSGTDYTFTISSLQPEDIATYYCLQYEQLRTFGGGTKVEIKRTVAAPSVFIFPPSDEQLKSGTASVVCLLNNFYPREAKVQWKVDNALQSGNSQESVTEQDSKDSTYSLSSTLTLSKADYEKHKVYACEVTHQGLSSPVTKSFNRGEC
Turning to B3, the Kd in assay [1] was found to be 430 nM; in assay [2], 0.069 nM; in assay [3], 0.49 nM; in assay [4] it was 110 nM; in assay [5], 7200 nM; in assay [6] it was 3.2 nM.

B4: H240-Kn230/H240-Hl068/L73-k0 (antibody)
chain 1: QDQLVQSGAEVKKPGASVKVSCKASGFNIKDTYIQWVRQAPGQGLEWMGRIDPLRKQTKYREKFEGRVTITADTSTNTAYMELSSLRSEDTAVYYCVRSGREFDYWGQGTLVTVSSASTKGPSVFPLAPSSKSTSGGTAALGCLVKDYFPEPVTVSWNSGALTSGVHTFPAVLQSSGLYSLSSVVTVPSSSLGTQTYICNVNHKPSNTKVDKKVEPKSCDKTHTCPPCPAPEVYWGPIVFLFPPKPKDTLMISRTPEVTCVVVDVSDEDPEVKFNWYVDGVEVHNAKTKPREEQYNATYRVVSVLTVLHQDWLNGKEYKCKVSNKDLPAPIEKTISKAKGQPREPQVCTLPPSRDELTKNQVSLWCLVKGFYPSDIAVEWESNGQPENNYKTTPPVLDSDGSFFLYSKLTVDKSRWQQGNVFSCSVMHEALHNHYTQKSLSLSP
chain 2: QDQLVQSGAEVKKPGASVKVSCKASGFNIKDTYIQWVRQAPGQGLEWMGRIDPLRKQTKYREKFEGRVTITADTSTNTAYMELSSLRSEDTAVYYCVRSGREFDYWGQGTLVTVSSASTKGPSVFPLAPSSKSTSGGTAALGCLVKDYFPEPVTVSWNSGALTSGVHTFPAVLQSSGLYSLSSVVTVPSSSLGTQTYICNVNHKPSNTKVDKKVEPKSCDKTHTCPPCPAPELLGGPSVFLFPPKPKDTLMISRTPEVTCVVVDVSHEEPEVKFNWYVDGVEVHNAKTKPREEQYNSTYRVVSVLTVLHQDWLNGKEYKCKVSNDALPKPIEETISKAKGQPREPQVYTLPPSRCELTKNQVSLSCAVKGFYPSDIAVEWESNGQPENNYKTTPPVLDSDGSFFLVSKLTVDKSRWQQGNVFSCSVMHEALHNHYTQKSLSLSP
chain 3: DIQMTQSPSSLSASVGDRVTITCRASQDIHKYIAWYQQKPGQAPRLLIQYTSTLQPGVPSRFSGSGSGTDYTFTISSLQPEDIATYYCLQYEQLRTFGGGTKVEIKRTVAAPSVFIFPPSDEQLKSGTASVVCLLNNFYPREAKVQWKVDNALQSGNSQESVTEQDSKDSTYSLSSTLTLSKADYEKHKVYACEVTHQGLSSPVTKSFNRGEC
On to B4, for which the Kd in assay [1] stood at 9.6 nM; in assay [2], 0.18 nM; in assay [3] it was 0.93 nM; in assay [4], 22 nM; in assay [5], 150 nM; in assay [6] it was 2.6 nM.
